Experimental findings from the Human Domainome abundance scans (Beltran et al. 2025) are described below.

± gives the uncertainty stated by the source.

This data set can be described thus: abundance fitness (aPCA) (normalised: wild type 0, dead -1); higher = more abundant; growth selection in yeast, the domain comes from the species named. The settings on record: Saccharomyces cerevisiae (strain ATCC 204508 / S288c).
“E3 ubiquitin-protein ligase RSP5 T356H, P39940” showed an abundance fitness of -0.483 ± 0.23.

Regarding “E3 ubiquitin-protein ligase RSP5 T356I, P39940”, the abundance fitness came to 0.404 ± 0.26.

The substance “E3 ubiquitin-protein ligase RSP5 T356K, P39940” yielded an abundance fitness of -0.225 ± 0.066.

For “E3 ubiquitin-protein ligase RSP5 T356L, P39940”, the abundance fitness is -0.143 ± 0.047.

As for “E3 ubiquitin-protein ligase RSP5 T356M, P39940”, the abundance fitness is -0.005 ± 0.066.

The substance “E3 ubiquitin-protein ligase RSP5 T356N, P39940” came in with an abundance fitness of -0.285 ± 0.18.

“E3 ubiquitin-protein ligase RSP5 T356P, P39940” yielded an abundance fitness of -0.96 ± 0.069.

As to “E3 ubiquitin-protein ligase RSP5 T356Q, P39940”, the abundance fitness was -0.121 ± 0.05.

With “E3 ubiquitin-protein ligase RSP5 T356R, P39940”, the abundance fitness is -0.32 ± 0.042.

The substance “E3 ubiquitin-protein ligase RSP5 T356S, P39940” displayed an abundance fitness of 0.034 ± 0.05.

“E3 ubiquitin-protein ligase RSP5 T356V, P39940” displayed an abundance fitness of -0.124 ± 0.052.

In turn, “E3 ubiquitin-protein ligase RSP5 T356Y, P39940” displayed an abundance fitness of -0.381 ± 0.12.

On to “E3 ubiquitin-protein ligase RSP5 T357A, P39940”, for which the abundance fitness is -0.304 ± 0.048.

Turning to “E3 ubiquitin-protein ligase RSP5 T357C, P39940”, the abundance fitness is -0.142 ± 0.065.

Substance “E3 ubiquitin-protein ligase RSP5 T357D, P39940” returned an abundance fitness of -0.711 ± 0.06.

Consider “E3 ubiquitin-protein ligase RSP5 T357E, P39940”, for which the abundance fitness was -0.477 ± 0.058.

“E3 ubiquitin-protein ligase RSP5 T357F, P39940” displayed an abundance fitness of -1.11 ± 0.28.

In the case of “E3 ubiquitin-protein ligase RSP5 T357G, P39940”, the abundance fitness is -0.81 ± 0.047.

Substance “E3 ubiquitin-protein ligase RSP5 T357H, P39940” had an abundance fitness of -0.578 ± 0.16.

“E3 ubiquitin-protein ligase RSP5 T357I, P39940” gave an abundance fitness of -0.735 ± 0.17.

As for “E3 ubiquitin-protein ligase RSP5 T357K, P39940”, the abundance fitness was -0.393 ± 0.069.

For the substance “E3 ubiquitin-protein ligase RSP5 T357L, P39940”, the abundance fitness was -0.488 ± 0.08.

As for “E3 ubiquitin-protein ligase RSP5 T357M, P39940”, the abundance fitness is -0.33 ± 0.094.

With “E3 ubiquitin-protein ligase RSP5 T357P, P39940”, the abundance fitness is -0.77 ± 0.073.

The substance “E3 ubiquitin-protein ligase RSP5 T357Q, P39940” displayed an abundance fitness of -0.441 ± 0.07.

In turn, “E3 ubiquitin-protein ligase RSP5 T357S, P39940” had an abundance fitness of -0.1 ± 0.062.

In turn, “E3 ubiquitin-protein ligase RSP5 T357V, P39940” displayed an abundance fitness of -0.247 ± 0.059.

As to “E3 ubiquitin-protein ligase RSP5 T357W, P39940”, the abundance fitness is -0.695 ± 0.061.

As for “E3 ubiquitin-protein ligase RSP5 T357Y, P39940”, the abundance fitness was -0.955 ± 0.31.

“E3 ubiquitin-protein ligase RSP5 T358D, P39940” came in with an abundance fitness of -0.659 ± 0.091.

“E3 ubiquitin-protein ligase RSP5 T358E, P39940” registered an abundance fitness of -0.761 ± 0.051.

In turn, “E3 ubiquitin-protein ligase RSP5 T358G, P39940” showed an abundance fitness of -0.535 ± 0.044.

“E3 ubiquitin-protein ligase RSP5 T358H, P39940” came in with an abundance fitness of -0.411 ± 0.076.

The substance “E3 ubiquitin-protein ligase RSP5 T358I, P39940” gave an abundance fitness of -1.07 ± 0.38.

“E3 ubiquitin-protein ligase RSP5 T358K, P39940” registered an abundance fitness of -0.658 ± 0.12.

“E3 ubiquitin-protein ligase RSP5 T358L, P39940” came in with an abundance fitness of -0.886 ± 0.063.

On to “E3 ubiquitin-protein ligase RSP5 T358N, P39940”, for which the abundance fitness was -0.767 ± 0.12.

“E3 ubiquitin-protein ligase RSP5 T358P, P39940” showed an abundance fitness of -0.955 ± 0.067.

The substance “E3 ubiquitin-protein ligase RSP5 T358Q, P39940” had an abundance fitness of -0.326 ± 0.057.

“E3 ubiquitin-protein ligase RSP5 T358R, P39940” yielded an abundance fitness of -0.781 ± 0.046.

Substance “E3 ubiquitin-protein ligase RSP5 T358S, P39940” showed an abundance fitness of -0.028 ± 0.058.

In turn, “E3 ubiquitin-protein ligase RSP5 T358V, P39940” displayed an abundance fitness of -0.729 ± 0.071.

Turning to “E3 ubiquitin-protein ligase RSP5 T358W, P39940”, the abundance fitness is -0.626 ± 0.064.

For the substance “E3 ubiquitin-protein ligase RSP5 T358Y, P39940”, the abundance fitness was -0.633 ± 0.12.

The substance “E3 ubiquitin-protein ligase RSP5 V350A, P39940” gave an abundance fitness of -0.275 ± 0.043.

In the case of “E3 ubiquitin-protein ligase RSP5 V350C, P39940”, the abundance fitness is -0.097 ± 0.066.

For “E3 ubiquitin-protein ligase RSP5 V350D, P39940”, the abundance fitness is -0.604 ± 0.11.

With “E3 ubiquitin-protein ligase RSP5 V350E, P39940”, the abundance fitness was -0.346 ± 0.057.

Substance “E3 ubiquitin-protein ligase RSP5 V350F, P39940” showed an abundance fitness of 0.044 ± 0.13.

Substance “E3 ubiquitin-protein ligase RSP5 V350G, P39940” registered an abundance fitness of -0.891 ± 0.046.

Regarding “E3 ubiquitin-protein ligase RSP5 V350K, P39940”, the abundance fitness was -0.537 ± 0.065.

In turn, “E3 ubiquitin-protein ligase RSP5 V350L, P39940” registered an abundance fitness of 0.028 ± 0.048.

In the case of “E3 ubiquitin-protein ligase RSP5 V350M, P39940”, the abundance fitness stood at 0.109 ± 0.085.

With “E3 ubiquitin-protein ligase RSP5 V350N, P39940”, the abundance fitness is -0.49 ± 0.095.

In turn, “E3 ubiquitin-protein ligase RSP5 V350Q, P39940” showed an abundance fitness of -0.295 ± 0.066.

“E3 ubiquitin-protein ligase RSP5 V350R, P39940” showed an abundance fitness of -0.546 ± 0.042.

In turn, “E3 ubiquitin-protein ligase RSP5 V350S, P39940” returned an abundance fitness of -0.502 ± 0.078.

As for “E3 ubiquitin-protein ligase RSP5 V350W, P39940”, the abundance fitness is -0.359 ± 0.057.

“E3 ubiquitin-protein ligase RSP5 V350Y, P39940” showed an abundance fitness of -0.136 ± 0.14.

Turning to “E3 ubiquitin-protein ligase RSP5 V360A, P39940”, the abundance fitness is -0.161 ± 0.046.

As for “E3 ubiquitin-protein ligase RSP5 V360C, P39940”, the abundance fitness was -0.018 ± 0.062.

“E3 ubiquitin-protein ligase RSP5 V360D, P39940” came in with an abundance fitness of -0.098 ± 0.056.

Substance “E3 ubiquitin-protein ligase RSP5 V360E, P39940” came in with an abundance fitness of -0.154 ± 0.053.

The substance “E3 ubiquitin-protein ligase RSP5 V360F, P39940” registered an abundance fitness of 0.058 ± 0.11.

On to “E3 ubiquitin-protein ligase RSP5 V360H, P39940”, for which the abundance fitness amounted to 0.043 ± 0.059.

Substance “E3 ubiquitin-protein ligase RSP5 V360I, P39940” yielded an abundance fitness of 0.186 ± 0.1.
